From PMC12511343, “Structural insights into Cir-mediated killing by the antimicrobial protein Microcin V” (Communications Biology, 2025) come the findings set out here.

The term stoichiometry N denotes the number of molecules, sites or subunits per partner or assembly. One may read the Kd as the equilibrium constant for the complex coming apart.

Assay [1] addresses D85A and D85R (MccV mutants, as a group). Kind of assay: BLI; biotinylated MccV (100 nM) loaded on streptavidin SA-XT sensors, Cir in twofold dilutions 5 uM to 78 nM in PBS-T; 300 s association, 240 s dissociation; first 30 s of association and dissociation fit to a 1:1 global model. Background: Biolayer interferometry detects binding as a change in optical thickness at a sensor tip.

Assay [2] deals with T1, 4-Met substituted E. coli Cir (colicin Ia receptor), the paper's wildtype (WT) Cir (E. coli, UniProt P17315 26-663, W338 mutated to methionine | L343 mutated to methionine | F589 mutated to …).
T1 construct: Cir (colicin Ia receptor, TonB-dependent transporter), E. coli, mature coding region of cirA with four residues changed to methionine (4-Met); No TEV cleavage of Cir is described; also called apo-Cir; His-tagged Cir; not shown: His10, N-terminal, kept
T1 sequence (looked up): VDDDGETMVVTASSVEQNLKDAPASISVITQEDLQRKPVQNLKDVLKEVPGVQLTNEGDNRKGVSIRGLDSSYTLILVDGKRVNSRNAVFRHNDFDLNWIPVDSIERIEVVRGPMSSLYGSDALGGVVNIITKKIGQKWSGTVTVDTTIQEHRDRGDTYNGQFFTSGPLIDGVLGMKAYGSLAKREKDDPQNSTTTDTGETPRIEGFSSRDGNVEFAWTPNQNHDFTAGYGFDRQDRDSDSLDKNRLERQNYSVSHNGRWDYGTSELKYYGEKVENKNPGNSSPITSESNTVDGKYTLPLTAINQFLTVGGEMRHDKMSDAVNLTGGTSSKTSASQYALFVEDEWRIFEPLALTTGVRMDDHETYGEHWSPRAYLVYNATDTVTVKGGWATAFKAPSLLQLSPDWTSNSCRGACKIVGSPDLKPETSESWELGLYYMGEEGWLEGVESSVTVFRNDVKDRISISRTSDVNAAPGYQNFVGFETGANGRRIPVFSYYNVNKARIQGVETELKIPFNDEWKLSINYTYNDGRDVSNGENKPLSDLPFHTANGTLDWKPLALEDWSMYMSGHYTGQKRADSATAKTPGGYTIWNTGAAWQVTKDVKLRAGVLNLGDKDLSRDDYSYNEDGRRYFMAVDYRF
The experiment in a line: BLI + AUC; stoichiometry reported from the concurrence of BLI (1:1 model) and SV-AUC (single-site model). The following applies: both partners purified.

Assay [3] has as its target T2, Cir C435A (in 4-Met Cir) (E. coli, UniProt P17315 26-663, W338 mutated to methionine | L343 mutated to methionine | F589 mutated to …).
T2 sequence: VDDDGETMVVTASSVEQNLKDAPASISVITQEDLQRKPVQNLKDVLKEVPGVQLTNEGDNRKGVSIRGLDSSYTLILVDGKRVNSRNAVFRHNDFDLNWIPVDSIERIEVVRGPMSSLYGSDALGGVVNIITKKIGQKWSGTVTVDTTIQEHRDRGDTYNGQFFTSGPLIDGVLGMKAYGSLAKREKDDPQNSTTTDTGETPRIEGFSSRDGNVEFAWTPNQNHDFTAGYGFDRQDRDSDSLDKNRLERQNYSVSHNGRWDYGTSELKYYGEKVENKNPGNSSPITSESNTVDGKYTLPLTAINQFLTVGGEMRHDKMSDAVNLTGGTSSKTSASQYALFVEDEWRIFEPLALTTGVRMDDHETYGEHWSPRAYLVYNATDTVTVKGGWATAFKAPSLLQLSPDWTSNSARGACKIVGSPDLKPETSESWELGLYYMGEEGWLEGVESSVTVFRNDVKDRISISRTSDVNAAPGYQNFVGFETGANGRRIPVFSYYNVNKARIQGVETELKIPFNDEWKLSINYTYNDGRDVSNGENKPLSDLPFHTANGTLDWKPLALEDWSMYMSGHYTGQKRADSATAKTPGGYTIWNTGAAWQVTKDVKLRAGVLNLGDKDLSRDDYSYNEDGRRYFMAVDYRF
The experiment in a line: BLI.

Assay [4] concerns the target T3, Cir R436E/R490E (in 4-Met Cir) (E. coli, UniProt P17315 26-663, W338 mutated to methionine | L343 mutated to methionine | F589 mutated to …).
T3 sequence: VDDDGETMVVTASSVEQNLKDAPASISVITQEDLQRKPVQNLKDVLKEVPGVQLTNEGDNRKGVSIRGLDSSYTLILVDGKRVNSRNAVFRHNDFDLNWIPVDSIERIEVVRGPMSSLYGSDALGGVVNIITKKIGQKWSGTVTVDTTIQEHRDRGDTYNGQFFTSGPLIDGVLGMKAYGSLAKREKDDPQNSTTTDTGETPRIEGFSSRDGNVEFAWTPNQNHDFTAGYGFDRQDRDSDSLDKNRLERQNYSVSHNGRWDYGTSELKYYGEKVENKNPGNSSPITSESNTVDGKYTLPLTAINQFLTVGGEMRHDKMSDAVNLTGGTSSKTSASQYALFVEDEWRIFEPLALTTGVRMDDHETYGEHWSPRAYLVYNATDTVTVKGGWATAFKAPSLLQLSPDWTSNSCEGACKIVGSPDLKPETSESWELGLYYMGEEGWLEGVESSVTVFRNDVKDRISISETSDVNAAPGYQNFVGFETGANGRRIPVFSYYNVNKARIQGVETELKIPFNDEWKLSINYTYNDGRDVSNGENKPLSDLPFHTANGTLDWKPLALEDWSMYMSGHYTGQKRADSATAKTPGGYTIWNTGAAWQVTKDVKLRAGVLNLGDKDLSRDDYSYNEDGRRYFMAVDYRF
The experiment in a line: BLI.

In assay [5] the target is T1, 4-Met substituted E. coli Cir (colicin …). Kind of assay: BLI; biotinylated MccV (100 nM) on streptavidin sensors, WT Cir 5 uM to 78 nM in PBS-T; steady state equilibrium, 1:1 binding model; incomplete equilibrium during the association phase. The following applies: both partners purified.
Assay [6] has the same target. The experiment in a line: BLI; biotinylated MccV (100 nM) loaded on streptavidin SA-XT sensors, Cir in twofold dilutions 5 uM to 78 nM in PBS-T; 300 s association, 240 s dissociation; first 30 s of association and dissociation fit to a 1:1 global model. The following applies: both partners purified.
For assay [7], the target named is T4, Cir TonB Box mutant M33C/V35P (in 4-Met Cir) (E. coli, UniProt P17315 26-663, W338 mutated to methionine | L343 mutated to methionine | F589 mutated to …).
T4 sequence: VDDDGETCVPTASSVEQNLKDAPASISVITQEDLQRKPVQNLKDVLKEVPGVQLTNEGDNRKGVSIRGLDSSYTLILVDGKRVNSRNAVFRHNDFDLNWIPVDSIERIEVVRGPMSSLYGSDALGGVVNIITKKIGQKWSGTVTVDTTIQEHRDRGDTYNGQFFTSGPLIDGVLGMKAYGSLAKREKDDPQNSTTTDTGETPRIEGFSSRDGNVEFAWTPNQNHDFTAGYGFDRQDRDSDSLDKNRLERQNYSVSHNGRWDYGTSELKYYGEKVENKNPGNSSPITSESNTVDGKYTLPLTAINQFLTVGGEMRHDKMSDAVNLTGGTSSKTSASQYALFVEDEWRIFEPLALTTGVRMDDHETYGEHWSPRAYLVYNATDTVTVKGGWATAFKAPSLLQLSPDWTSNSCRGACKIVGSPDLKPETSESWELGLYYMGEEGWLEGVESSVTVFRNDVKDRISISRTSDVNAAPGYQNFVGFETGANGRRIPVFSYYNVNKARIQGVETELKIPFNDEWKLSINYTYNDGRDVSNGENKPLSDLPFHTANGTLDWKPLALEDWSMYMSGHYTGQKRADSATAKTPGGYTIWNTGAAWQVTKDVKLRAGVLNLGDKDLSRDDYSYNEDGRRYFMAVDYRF
The experiment in a line: BLI.

Assay [8] has as its target T1, 4-Met substituted E. coli Cir (colicin …). Kind of assay: AUC; sedimentation velocity, NAPol-solubilised Cir and its mixtures with MccV in phosphate-buffered saline, 50,000 rpm, 20 C; single-site model. The note with it: both partners purified.

B1: 4-Met substituted E. coli Cir (colicin Ia receptor), the paper's wildtype (WT) Cir (receptor)
chain: VDDDGETMVVTASSVEQNLKDAPASISVITQEDLQRKPVQNLKDVLKEVPGVQLTNEGDNRKGVSIRGLDSSYTLILVDGKRVNSRNAVFRHNDFDLNWIPVDSIERIEVVRGPMSSLYGSDALGGVVNIITKKIGQKWSGTVTVDTTIQEHRDRGDTYNGQFFTSGPLIDGVLGMKAYGSLAKREKDDPQNSTTTDTGETPRIEGFSSRDGNVEFAWTPNQNHDFTAGYGFDRQDRDSDSLDKNRLERQNYSVSHNGRWDYGTSELKYYGEKVENKNPGNSSPITSESNTVDGKYTLPLTAINQFLTVGGEMRHDKMSDAVNLTGGTSSKTSASQYALFVEDEWRIFEPLALTTGVRMDDHETYGEHWSPRAYLVYNATDTVTVKGGWATAFKAPSLLQLSPDWTSNSCRGACKIVGSPDLKPETSESWELGLYYMGEEGWLEGVESSVTVFRNDVKDRISISRTSDVNAAPGYQNFVGFETGANGRRIPVFSYYNVNKARIQGVETELKIPFNDEWKLSINYTYNDGRDVSNGENKPLSDLPFHTANGTLDWKPLALEDWSMYMSGHYTGQKRADSATAKTPGGYTIWNTGAAWQVTKDVKLRAGVLNLGDKDLSRDDYSYNEDGRRYFMAVDYRF
For B1, the percent reduction in response shift relative to WT at 5 μM probe in assay [1] was in the range of 40 to 45%.

B2: Microcin V (MccV), mature, wildtype (natural protein, E. coli, UniProt P22522 16-103, looked up)
chain: ASGRDIAMAIGTLSGQFVAGGIGAAAGGVAGGAIYDYASTHKPNPAMSPSGLGGTIKQKPEGIPSEAWNYAAGRLCNWSPNNLSDVCL
modifications: biotinylated (EZ-Link Sulfo-NHS-LC kit) for BLI and ELISA; not labelled for cryo-EM and SV-AUC
notes: Only residues 57-88 (mature numbering) were resolved in the map; also called WT MccV; Colicin V; source: E. coli BL21 (DE3), purified (HisTrap as His6-MBP fusion, TEV cleavage, second nickel column, flowthrough); not shown: His6, N-terminal, cleaved; MBP, N-terminal, cleaved
In the case of B2, in assay [2], the “stoichiometry N” value was 1. The dissociation constant (Kd) in assay [3] stood at 552 nM; in assay [4], 1580 nM; in assay [5], 1700 ± 1200 nM; in assay [6], 155 ± 30 nM; in assay [7], 374 nM; in assay [8] it was 600 ± 200 nM.
